Publication PMC6770759

Target: porcine pancreatic elastase (porcine) (UniProt P00772)
Sequence of UniProt P00772 (P00772 27-266): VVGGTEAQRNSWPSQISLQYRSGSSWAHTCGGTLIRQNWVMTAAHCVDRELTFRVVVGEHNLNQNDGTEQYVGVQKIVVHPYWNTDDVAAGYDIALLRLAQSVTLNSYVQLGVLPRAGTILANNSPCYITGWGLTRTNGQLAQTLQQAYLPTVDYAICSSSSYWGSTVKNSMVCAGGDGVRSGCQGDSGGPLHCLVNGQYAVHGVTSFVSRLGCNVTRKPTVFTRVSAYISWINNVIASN

## Alpha-1-antitrypsin (standard AAT, purified from human plasma) (from UniProt P01009 25-418) (natural protein)
  elastase inhibition % (hydrolysis of N-succinyl-tri-l-alanine-4-nitroanilide read at 410 nm), AAT from 7.5 to 120 µg/mL: 97%
